This is an account of results in paper PMC7570090, “Label-Free Monitoring of Histone Acetylation Using Aptamer-Functionalized Field-Effect Transistor and Quartz Crystal Microbalance Sensors”.

One data set deals with histone H4 (human, UniProt P62805 1-103). The data set can be described thus: FET and QCM; 140 mM KCl; 44-2650 nM H4; FET: 1 mM phosphate, 140 mM KCl, pH 7.4, 25 C; aptamer/sulfobetaine SAM on gold annealed at 100 C and slowly cooled; QCM 30 MHz, 25 C (buffer not separately stated). The conditions noted are these: protein: commercial; G-quadruplex with K+.
The target of a further data set is histone H3.1 (human, UniProt P68431 1-136). As to the kind of experiment: FET and QCM; 140 mM KCl; 33-1950 nM H3; FET: 1 mM phosphate, 140 mM KCl, pH 7.4, 25 C; aptamer/sulfobetaine SAM on gold annealed at 100 C and slowly cooled; QCM 30 MHz, 25 C (buffer not separately sta).

B1: anti-histone H4 aptamer (structured_DNA)
DNA: TTTTGGTGGGGTTCCCGGGAGGGCGGCTACGGGTTCCGTAATCAGATTTGTGT
modifications: 5' 6-mercaptohexyl linker
Consider B1, for which the binding result with histone H4 was “binds”.

B2: anti-histone H3 aptamer (structured_DNA)
DNA: TTTGAGTGTGGTTCCCGGGAGGGCGCCTACGGGTCCCGTATTCGGATTTGTGC
modifications: 5' 6-mercaptohexyl linker
As for B2, the binding result with histone H3.1 is recorded as “binds”.
